The subject of one assay is PP2Ac. Put plainly: Summary of detection properties of C-terminal PP2Ac antibodies (Table 4), PP2Ac. Format: binding. How it is done: Examples of antibodies with a preference for non-methylated PP2Ac are mouse monoclonal antibody 4B7 (Yu (2001), Mol Biol Cell 12, 185-199), mouse monoclonal antibody 1D7 generated by the Ogris lab but also the rabbit monoclonal E155 antibody from Abeam and the mouse monoclonal F-8 from SCBT that were thought to be specific for pTyr^307.
E155 was tested for its specificity to phosphorylation and methylation on the carboxy-terminus of PP2A on 6 different undecapeptides by ELISA (FIGS. 18 and 19). Flat-bottom Nunc-Immuno Medisorp 96-well ELISA plates (Thermo; 467320) were coated o/n at 4° C. with 50 μl of either a peptide of the sequence ac-HVTRRTPDYFL-OH (L309) (SEQ ID NO:18) at a concentration of 2 μg/ml, a peptide of the sequence ac-HVTRRTPDYFL-CH3 (meL309) (SEQ ID NO:18) at a concentration of 2 μg/ml in TBS (137 mM NaCl (AppliChem, #131659, 2.7 mM KCl (AppliChem, #131494.), 24.8 mM Tris (AppliChem, #A1086), pH 7.4 with HCl), with a peptide of the sequence ac-HVTRRpTPDYFL-OH (pT304-L309) (SEQ ID NO:116) at a concentration of 2 μg/ml in TBS, or with a peptide of the sequence ac-HVTRRpTPDYFL-CH3 (pT304-meL309) (SEQ ID NO:116) at a concentration of 2 μg/ml in TBS (FIG. 18). The wells were washed once with TBS, blocked with 200 μl of 2% bovine serum albumin (BSA) (Sigma, A9647) in TBS for 1 hour at RT and washed again once with TBS. […] Bound antibodies were detected colorimetrically by addition of 50 μl of 33 μg/ml […] (TMB) (Sigma, T2885) in 0.1 M sodium acetate pH 6.0 and 0.01% H2O2 (Sigma, H1009). The colorimetric reaction was stopped after 10 min by addition of 50 μl 0.5 M H2SO4, and absorbance was measured at 450 nm and 560 nm with a Perkin Elmer VICTOR® Nivo™ microplate reader. The results from 560 nm read were subtracted from the 450 nm read.
In a further experiment, flat-bottom Nunc-Immuno Medisorp 96-well ELISA plates (Thermo; 467320) were coated o/n at 4° C. with 50 μl of either a peptide of the sequence ac-HVTRRTPDYFL-OH (L309) (SEQ ID NO:18) at a concentration of 2 μg/ml in TBS (137 mM NaCl (AppliChem, #131659, 2.7 mM KCl (AppliChem, #131494.), 24.8 mM Tris (AppliChem, #A1086), pH 7.4 with HCl), a peptide of the sequence ac-HVTRRTPDYFL-CH3 (meL309) (SEQ ID NO:18) at a concentration of 2 μg/ml in TBS (137 mM NaCl (AppliChem, #131659.1214, 2.7 mM KCl (AppliChem, #131494.1211) pH 7.4 with HCl), with a peptide of the sequence ac-HVTRRTPDpYFL-OH (pY307-L309) (SEQ ID NO:117) at a concentration of 2 μg/ml in TBS or with a peptide of the sequence ac-HVTRRTPDpYFL-CH3 (pY307-meL309) (SEQ ID NO:117) at a concentration of 2 μg/ml in TBS (FIG. 19). […] The colorimetric reaction was stopped after 10 min by addition of 50 μl 0.5 M H2SO4, and absorbance was measured at 450 nm and 570 nm with a Biotek Synergy™ H1 microplate reader. […]

In assay [1] the target is T1, C(βA)TPDYFL-CH3 peptide (carboxymethylated PP2Ac C-terminus) (Homo sapiens, UniProt P67775).
T1 construct: purchased PiChem GmbH (Graz, Austria)
Put plainly: ELISA screening of hybridoma supernatants with C(βA)TPDYFL peptides. The assay is classed as binding. The settings on record: undiluted supernatants, peptides at 3 μg/ml. How it is done:
In parallel to the immunoblotting screening, hybridoma supernatants were tested for the presence of TPDYFL-CH3 (SEQ ID NO:1) specific IgG antibodies by ELISA. Specifically, flat-bottom Nunc-Immuno Medisorp 96-well ELISA plates (Thermo; 467320) were coated over night at 4° C. with 50 μl of either a peptide of the sequence C(βA)TPDYFL (SEQ ID NO:48) at a concentration of 3 μg/ml in 10 mM sodium phosphate buffer pH 7.0 or with a peptide of the sequence C(βA)TPDYFL-CH3 (SEQ ID NO:48) at a concentration of 3 μg/ml in 10 mM sodium phosphate buffer pH 7.0. The wells were washed once with PBS, blocked with 180 μl of 2% bovine serum albumin (Sigma, A9647) in PBS for 1 hour at RT and washed again once with PBS. […] Bound antibodies were detected colorimetrically by addition of 50 μl of 33 μg/ml […] (TMB) (Sigma, T2885) in 0.1 M sodium acetate pH 6.0 and 0.01% H2O2 (Sigma, H1009). The colorimetric reaction was stopped after 28 min by addition of 50 μl 0.5 M H2SO4, and absorbance was measured at 450 nm with a Perkin Elmer Wallac Victor 2 1420 Multilabel Counter.
For orientation: In an ELISA, binding on a coated surface is turned into a signal by an enzyme label.

Setting [2] is: antibodies screened for binding methylated PP2Ac.

B1: 7C10-C5: α-carboxymethylation specific mouse monoclonal IgG1 antibody from single clone hybridoma 7C10-C5 (DSM ACC3350) (antibody)
heavy: MYRMQLLSCIALSLALVTNSDVQLQESGPGLVKPSQSLSLTCSVTGYSITSGYYWNWIRQFPGNKLEWMGYISYDGSNNYNPSLKNRISITRDTSKNQFFLKLNSVTTEDTATYYCAGRFAYWGQGTLVTVSAAKTTAPSVYPLAPVCGDTTGSSVTLGCLVKGYFPEPVTLTWNSGSLSSGVHTFPAVLQSDLYTLSSSVTVTSSTWPSQSITCNVAHPASSTKVDKKIEPRGPTIKPCPPCKCPAPNLLGGPSVFIFPPKIKDVLMISLSPIVTCVVVDVSEDDPDVQISWFVNNVEVHTAQTQTHREDYNSTLRVVSALPIQHQDWMSGKEFKCKVNNKDLPAPIERTISKPKGSVRAPQVYVLPPPEEEMTKKQVTLTCMVTDFMPEDIYVEWTNNGKTELNYKNTEPVLDSDGSYFMYSKLRVEKKNWVERNSYSCSVVHEGLHNHHTTKSFSRTPGK
light: MDMRVPAQLLGLLLLWLSGARCDVLMTQTPLSLPVSLGDQASISCRSSQSIVHSNGNTYLEWYLQKPGQSPKLLIYKVSNRFSGVPDRFSGSGSGTDFTLKINRVEAEDLGVYYCFQGSHVPWTFGGGTKLEIKADAAPTVSIFPPSSEQLTSGGASVVCFLNNFYPKDINVKWKIDGSERQNGVLNSWTDQDSKDSTYSMSSTLTLTKDEYERHNSYTCEATHKTSTSPIVKSFNRNEC
modifications: Amino acid sequence of the recombinant 7C10-C5 heavy chain; Amino acid sequence of the recombinant 7C10-C5 light chain
Turning to B1, the “meLeu^309” value with PP2Ac (PP2Ac carboxymethylated at Leu309) was “*** (*** 80-100%)”. In addition, in the assay on PP2Ac (setting [2]), the “pThr^304 meLeu^309” value is given as “**** (**** >100%)” and the “pTyr^307 meLeu^309” value is given as “*** (*** 80-100%)”. In addition, in the assay on PP2Ac (unmodified PP2Ac C-terminus), the unmodified result is “— (— <15%)”.

B2: 7C10-C5 monoclonal antibody (antibody, V domains shown)
VH: DVQLQESGPGLVKPSQSLSLTCSVTGYSITSGYYWNWIRQFPGNKLEWMGYISYDGSNNYNPSLKNRISITRDTSKNQFFLKLNSVTTEDTATYYCAGRFAYWGQGTLVTVSA
VL: DVLMTQTPLSLPVSLGDQASISCRSSQSIVHSNGNTYLEWYLQKPGQSPKLLIYKVSNRFSGVPDRFSGSGSGTDFTLKINRVEAEDLGVYYCFQGSHVPWTFGGGTKLEIK
notes: Used as hybridoma culture supernatant (ELISA, Western blot, IHC) or at 50 µg/mL (SPR); also called 7C10 X63; clone 7C10-C5
In the case of B2, the “detection of carboxymethylated versus non-carboxymethylated peptide” value in assay [1] was “detected the carboxymethylated peptide”.

The values above are taken from patent US20230121197A1, “ANTIBODIES SPECIFICALLY BINDING THE CARBOXYMETHYLATED CATALYTIC SUBUNIT OF PROTEIN PHOSPHATASE 2A” (Medizinische Universität Wien, priority 2020, published 2023).
